Experimental data from US20180214548A1 (SHANGHAI YUNYI HEALTHCARE AND TECHNOLOGY, published 2018).
Values belong to the binder of their own block, whether it stands above or below them.

Key:
[1] = biological target: T1, cyno PD-1, full length, on CHO-K1 cells (cyno monkey, UniProt B0LAJ3 25-288); test: flow cytometry on CHO-K1-cPD-1 cells
T1 construct: also called CHO-K1-cPD-1; cPD-1
Excerpt: CHO-K1 cells were stably transfected with pIRES plasmid containing the nucleic acid sequence encoding full length human PD-1 (see Example 2, step 2) to generate CHO-K1 cells stably expressing human PD-1 (herein referred to as CHO-K1-hPD-1 cells). Other CHO-K1 were stably transfected with pIRES plasmid containing the nucleic acid sequence encoding full length cyno PD-1 to generate CHO-K1 cells stably expressing cyno PD-1 (herein referred to as CHO-K1-cPD-1 cells). CHO-K1-hPD-1 and CHO-K1-cPD-1 cells were cultured and expanded in T-75 culture flasks to 90% confluence. The culture media was aspirated, and the cells were washed twice with HBSS (Hanks Balanced Salt Solution, Invitrogen). The cells were treated with enzyme-free cell dissociation solution (Versene solution, Invitrogen) and collected. The cells were then washed twice with HBSS, cell counts were determined, and cells were resuspended with HBSS at 2×10⁶ cells/mL. Goat serum was added to the cell suspension to a final concentration of 1%, and the cells were blocked for 30 minutes on ice and then washed twice with HBSS. The cells were collected after centrifugation and resuspended in FACS buffer (HBSS+1% BSA, v/v) at 2×10⁶ cells/mL. 100 uL of the cell suspension were then added to each well of 96-well plate. 100 uL of purified anti-PD-1 antibodies from Example 2 were added to each well of the 96-well plate and incubated for 2 hours on ice. […] The samples were washed three times with FACS buffer, and 100 uL fixation buffer (4% paraformaldehyde v/v) were added to each well and incubated for 10 minutes. The cells were then washed twice with FACS buffer and resuspended in 100 uL FACS buffer. The mean fluorescence intensity (MFI) was determined using FACS Calibur (BD), and the results are shown in FIGS. 7-8 and in Tables 10-11.

[2] = biological target: T2, human PD-1, full length, on cells (human, UniProt Q15116 25-288); test: cell-based or functional assay
T2 sequence (Q15116 25-288): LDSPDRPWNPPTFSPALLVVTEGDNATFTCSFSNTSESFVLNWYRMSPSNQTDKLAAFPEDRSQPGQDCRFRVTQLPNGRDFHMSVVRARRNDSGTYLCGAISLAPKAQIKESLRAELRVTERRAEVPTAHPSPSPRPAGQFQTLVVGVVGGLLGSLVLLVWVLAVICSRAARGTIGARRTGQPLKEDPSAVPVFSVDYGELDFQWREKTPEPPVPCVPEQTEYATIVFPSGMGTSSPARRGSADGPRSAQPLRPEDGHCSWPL

[3] = biological target: T2, human PD-1, full length, on cells; test: cell-based or functional assay; remark: listed apart in the source
[4] = biological target: T2, human PD-1, full length, on cells; test: cell-based or functional assay; remark: listed apart in the source
[5] = biological target: T3, human PD-1^ECD-hFc protein (Immunogen A) (human, UniProt Q15116 25-167); test: BLI Octet Red 96, biotinylated PD-1ECD-hFc on streptavidin sensor
T3 construct: also called PD-1-hFc; hPD-1^ECD-hFc; not shown: human IgG Fc fragment (hFc)
T3 sequence (Q15116 25-167): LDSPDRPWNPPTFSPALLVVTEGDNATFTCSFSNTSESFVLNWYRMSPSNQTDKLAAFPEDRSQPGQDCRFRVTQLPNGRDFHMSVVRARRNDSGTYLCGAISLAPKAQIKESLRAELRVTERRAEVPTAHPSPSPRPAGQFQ
Method: Dissociation constants were determined by Octed red 96 (Fortiebio). The detailed operation and methods were followed according to the specifications of the instrument provided by the manufacturer. Briefly, a streptavidin sensor (SA sensor, Fortiebio) was used for the affinity determination. […] The reaction mixture was further incubated in PBS buffer (pH7.4) containing 0.1% (v/w) BSA and 0.02% (v/v) Tween20 at 30° C. for 5 minutes. […] The affinity, association and dissociation constants were determined using Octet User software, and the results are shown in Table 12.

[6] = biological target: T2, human PD-1, full length, on cells; test: cell-based or functional assay; remark: listed apart in the source
[7] = biological target: T2, human PD-1, full length, on cells; test: flow cytometry on CHO-K1-hPD-1 cells

T1 sequence (B0LAJ3 entry or part of it limits assumed): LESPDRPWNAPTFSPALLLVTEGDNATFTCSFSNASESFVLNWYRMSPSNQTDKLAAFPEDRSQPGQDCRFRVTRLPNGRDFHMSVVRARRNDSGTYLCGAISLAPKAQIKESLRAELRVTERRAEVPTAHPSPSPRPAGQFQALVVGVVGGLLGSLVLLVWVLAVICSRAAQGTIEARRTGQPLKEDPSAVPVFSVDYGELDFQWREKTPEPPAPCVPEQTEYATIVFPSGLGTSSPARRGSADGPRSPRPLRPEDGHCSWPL

B1: chimeric anti-PD-1 antibody 226C3A7 (antibody, V domains shown)
VH: QVQLQQSGPGLVNPSQTLSLTCAISGDSVSSNSGAWNWIRQSPSRGLEWLGRTYYRSKWYNDYGISVQSRITINPDTSKNHFSLQLNSVTPEDTAVYYCARDPYYYGSGSYFDYWGQGTLVTVSS
VL: EIVMTQSPATLSVSPGERVTLSCRASLSVNSNLAWYQQKPGQAPRLLIYDTSTRATGVPARFSGSGSGTEFTLTISSLQSEDFAVYYCQQYHYWPLTFGGGTKVEIK
MFI at 0.0316 nM [1]: 3.3 MFI
MFI at 0.1 nM [1]: 3.3 MFI
MFI at 0.316 nM [1]: 3.6 MFI
MFI at 1 nM [1]: 5.8 MFI
MFI at 3.16 nM [1]: 28 MFI
MFI at 10 nM [1]: 221 MFI
MFI at 31.6 nM [1]: 848 MFI
MFI at 100 nM [1]: 933 MFI

B3: chimeric anti-PD-1 antibody 76G5B3 (antibody, V domains shown)
VH: QVQLVESGGGVVQPGRSLRLSCAASGFTFSDYGFHWVRQAPGKGLEWVAVIWYDGSNEYYTDSVKGRFTISRDNSKNTLYLQMNSLRAEDTAMYFCVVNPFDYWGQGTLVTVSS
VL: DIQMTQSPSSLSAFVGDRVTITCRASQGINHYLAWYQQKPGKAPNLLILAASTLLSGVPSRFGGRGSGTDFTLIISSLQPEDVATYYCQKYDSAPYTFGQGTKLEIK
IL-2 release, mixed lymphocyte reaction (PBMC donor-2), antibody 0.001 µg/mL [2]: 93.3 pg/mL
IL-2 release, mixed lymphocyte reaction (PBMC donor-2), antibody 0.01 µg/mL [2]: 145 pg/mL
IL-2 release, mixed lymphocyte reaction (PBMC donor-2), antibody 0.1 µg/mL [2]: 182 pg/mL
IL-2 release, mixed lymphocyte reaction (PBMC donor-2), antibody 1 µg/mL [2]: 194 pg/mL
MFI at 0.0316 nM [1]: 2.3 MFI
MFI at 0.1 nM [1]: 28.4 MFI
MFI at 0.316 nM [1]: 59.3 MFI
MFI at 1 nM [1]: 132 MFI
MFI at 3.16 nM [1]: 217 MFI
MFI at 10 nM [1]: 326 MFI
MFI at 31.6 nM [1]: 314 MFI
MFI at 100 nM [1]: 297 MFI
IL-2 release, mixed lymphocyte reaction (PBMC donor-1), antibody 0.001 µg/mL [3]: 88.8 pg/mL
IL-2 release, mixed lymphocyte reaction (PBMC donor-1), antibody 0.01 µg/mL [3]: 131 pg/mL
IL-2 release, mixed lymphocyte reaction (PBMC donor-1), antibody 0.1 µg/mL [3]: 148 pg/mL
IL-2 release, mixed lymphocyte reaction (PBMC donor-1), antibody 1 µg/mL [3]: 140 pg/mL
IFN-γ release, mixed lymphocyte reaction (PBMC donor-2), antibody 0.001 µg/mL [4]: 1810 pg/mL
IFN-γ release, mixed lymphocyte reaction (PBMC donor-2), antibody 0.01 µg/mL [4]: 5520 pg/mL
IFN-γ release, mixed lymphocyte reaction (PBMC donor-2), antibody 0.1 µg/mL [4]: 12700 pg/mL
IFN-γ release, mixed lymphocyte reaction (PBMC donor-2), antibody 1 µg/mL [4]: 15900 pg/mL
Kd [5]: 0.032 nM
koff [5]: 1.3e-05 s⁻¹
kon [5]: 408000 M⁻¹ s⁻¹
IFN-γ release, mixed lymphocyte reaction (PBMC donor-1), antibody 0.001 µg/mL [6]: 2900 pg/mL
IFN-γ release, mixed lymphocyte reaction (PBMC donor-1), antibody 0.01 µg/mL [6]: 7530 pg/mL
IFN-γ release, mixed lymphocyte reaction (PBMC donor-1), antibody 0.1 µg/mL [6]: 12100 pg/mL
IFN-γ release, mixed lymphocyte reaction (PBMC donor-1), antibody 1 µg/mL [6]: 8110 pg/mL

B5: chimeric anti-PD-1 antibody 32B5C7 (antibody, V domains shown)
VH: EVQLLESGGGLVQPGGSLRLSCAASGFTFSSYAMSWVRQAPGKGLEWVSTISGSGGTTYYADSVKGRFTISRDNSKNTLYLQMNSLRAEDTAVYYCTLTGDPDYWGQGTLVTVSS
VL: EIVLTQSPATLSLSPGERATLSCRASQSVSSYLAWYQQKPGQAPRLLIYDASKRATGIPARFSGSGSGTDFTLTISSLEPEDFAVYYCQQRNNWPLTFGGGTKVEIK
MFI at 0.0316 nM [1]: 2.2 MFI
MFI at 0.1 nM [1]: 13.7 MFI
MFI at 0.316 nM [1]: 25.8 MFI
MFI at 1 nM [1]: 46.3 MFI
MFI at 3.16 nM [1]: 89 MFI
MFI at 10 nM [1]: 174 MFI
MFI at 31.6 nM [1]: 151 MFI
MFI at 100 nM [1]: 150 MFI
Kd [5]: 0.045 nM
koff [5]: 9.64e-06 s⁻¹
kon [5]: 212000 M⁻¹ s⁻¹

Results, then the binder that gave them:

MFI at 0.1 nM [1]: 50.6 MFI
MFI at 1 nM [1]: 475 MFI
MFI at 10 nM [1]: 2120 MFI
MFI at 100 nM [1]: 2340 MFI
B2: chimeric anti-PD-1 antibody 223G6B5 (antibody, V domains shown)
VH: QVQLQESGPGLVKPSETLSLTCAVSGHSIRGSYFWGWIRQPPGRGLEWIGSIYHSGSTYTNPSLKSRATISVDTSKNQFSLKLNSVTAADTAVYYCARDLDIATTRDYWGQGTLVTVSS
VL: DIQLTQSPSFLSASVGDRVTIICRASQGINNYLAWYQQKPGKAPKLLIYAASTLQSGVPSRFSGSGSGTEFTLTISSLQPEDFATYYCQQLDSYPRTFGQGTKVEIKR

IL-2 release, mixed lymphocyte reaction (PBMC donor-2), antibody 0.001 µg/mL [2]: 30 pg/mL
IL-2 release, mixed lymphocyte reaction (PBMC donor-2), antibody 0.01 µg/mL [2]: 43.4 pg/mL
IL-2 release, mixed lymphocyte reaction (PBMC donor-2), antibody 0.1 µg/mL [2]: 74.2 pg/mL
IL-2 release, mixed lymphocyte reaction (PBMC donor-2), antibody 1 µg/mL [2]: 103 pg/mL
MFI at 0.1 nM [1]: 23.4 MFI
MFI at 1 nM [1]: 156 MFI
MFI at 10 nM [1]: 773 MFI
MFI at 100 nM [1]: 944 MFI
IL-2 release, mixed lymphocyte reaction (PBMC donor-1), antibody 0.001 µg/mL [3]: 33.1 pg/mL
IL-2 release, mixed lymphocyte reaction (PBMC donor-1), antibody 0.01 µg/mL [3]: 48.9 pg/mL
IL-2 release, mixed lymphocyte reaction (PBMC donor-1), antibody 0.1 µg/mL [3]: 106 pg/mL
IL-2 release, mixed lymphocyte reaction (PBMC donor-1), antibody 1 µg/mL [3]: 65.6 pg/mL
IFN-γ release, mixed lymphocyte reaction (PBMC donor-2), antibody 0.001 µg/mL [4]: 2090 pg/mL
IFN-γ release, mixed lymphocyte reaction (PBMC donor-2), antibody 0.01 µg/mL [4]: 2720 pg/mL
IFN-γ release, mixed lymphocyte reaction (PBMC donor-2), antibody 0.1 µg/mL [4]: 2630 pg/mL
IFN-γ release, mixed lymphocyte reaction (PBMC donor-2), antibody 1 µg/mL [4]: 2830 pg/mL
IFN-γ release, mixed lymphocyte reaction (PBMC donor-1), antibody 0.001 µg/mL [6]: 3010 pg/mL
IFN-γ release, mixed lymphocyte reaction (PBMC donor-1), antibody 0.01 µg/mL [6]: 5910 pg/mL
IFN-γ release, mixed lymphocyte reaction (PBMC donor-1), antibody 0.1 µg/mL [6]: 15300 pg/mL
IFN-γ release, mixed lymphocyte reaction (PBMC donor-1), antibody 1 µg/mL [6]: 15200 pg/mL
B4: chimeric anti-PD-1 antibody 21G8F11 (antibody, V domains shown)
VH: EVQLLESGGGLAQPGGSLRLSCAASGFSFNTYLMHWVRQAPGKGLEWVSAISGGGGNTYYADSVKGRFTISRDNSKNTLYLQMNSLRAEDTAVYYCAKENRIPVAPFDYWGQGTLVTVSS
VL: DIQMTQSPSTLSASVGDRVTITCRASQSISTWLAWYQQKPGKAPKLLIYKASSLESGVPSRFSGSGSGTEFTLTISSLQPDDLATYYCQQYNSFSWTFGQGTKVEIK

MFI at 0.01 nM [7]: 2.8 MFI
B6: fully human anti-PD-1 antibody 32B5C7 (antibody, human IgG4 S228P, kappa, V domains shown)
VH: B5 VH
VL: EIVLTQSPATLSLSPGERATLSCRASQSVSSYLAWYQQKPGQAPRLLIYDASKRATGIPARFSGSGSGTDFTLTISSLEPEDFAVYYCQQRNNWPLTFGGGTKVEIKR

MFI at 0.0316 nM [1]: 2.9 MFI
MFI at 0.1 nM [1]: 3.1 MFI
MFI at 0.316 nM [1]: 3.1 MFI
MFI at 1 nM [1]: 5.1 MFI
MFI at 3.16 nM [1]: 23.4 MFI
MFI at 10 nM [1]: 156 MFI
MFI at 31.6 nM [1]: 773 MFI
MFI at 100 nM [1]: 944 MFI
B7: chimeric anti-PD-1 antibody 204C5E12 (antibody, V domains shown)
VH: QVQLVESGGGVVQPGRSLRLSCAASGFSFSYYGMHWVRQAPGKGLEWVAVIWYDGSNKYYADSVKGRFTISRDNSKNTLYLQMNSLRAEDTAVYYCASGITLVRGADYYYNYDMDVWGQGTTVTVSS
VL: not shown
